B1: 3BP-4371 (peptide)
peptide: {DOTA-APAc}-VYCE[dP]D[Af3(HYDAc)]LTWSC-NH2
modifications: linker 3-12 via mXylylene; reading uncertain
B2: 3BP-4398 (peptide)
peptide: {DOTA-APAc}-VYCE[dP]D[Aph(4SaBz)]LTWSC-NH2
modifications: linker 3-12 via mXylylene; reading uncertain
B3: 3BP-4446 (peptide)
peptide: {DOTA-PPAc″}-YCE[dP]DWLTWSC-NH2
modifications: linker 2-11 via mXylylene; reading uncertain
B4: 3BP-4322 (peptide)
peptide: {DOTA-APAc″}-VYCE[dP]D[Af3(HySuc)]LTWSC-NH2
modifications: linker 3-12 via mXylylene
B5: 3BP-4305 (peptide)
peptide: {DOTA-APAc″}-VYCE[dP]D[Af3(CMPy)]LTWSC-NH2
modifications: linker 3-12 via mXylylene
B6: 3BP-4364 (peptide)
peptide: {DOTA-APAc″}-VYCE[dP]D[af3(ac-asp)]LTWSC-NH2
modifications: linker 3-12 via mXylylene; not fully specified
B7: 3BP-4341 (peptide)
peptide: {DOTA-APAc″}-VYCE[dP]D[Af3(DImAc)]LTWSC-NH2
modifications: linker 3-12 via mXylylene
B8: 3BP-4362 (peptide)
peptide: {DOTA-APAc″}-VYCE[dP]D[af3(ac-glu)]LTWSC-NH2
modifications: linker 3-12 via mXylylene; not fully specified
B9: 3BP-4262 (peptide)
peptide: {DOTA-AEEA}-DCE[dP]DWLTW[Dap]C-NH2
modifications: lactam 10-1; linker 2-11 via mXylylene
SMILES: CC(C)C[C@@H]1NC(=O)[C@H](Cc2c[nH]c3ccccc23)NC(=O)[C@H](CC(=O)O)NC(=O)[C@H]2CCCN2C(=O)[C@H](CCC(=O)O)NC(=O)[C@@H]2CSCc3cccc(c3)CSC[C@@H](C(N)=O)NC(=O)[C@H](CNC(=O)C[C@H](NC(=O)COCCOCCNC(=O)CN3CCN(CC(=O)O)CCN(CC(=O)O)CCN(CC(=O)O)CC3)C(=O)N2)NC(=O)[C@H](Cc2c[nH]c3ccccc23)NC(=O)[C@H]([C@@H](C)O)NC1=O
B10: 3BP-4361 (peptide)
peptide: {DOTA-APAc″}-VYCE[dP]D[Af3(Ac-Glu)]LTWSC-NH2
modifications: linker 3-12 via mXylylene
B11: 3BP-4356 (peptide)
peptide: {DOTA-APAc″}-VYCE[dP]D[Aph(HO-Succinyl)]LTWSC-NH2
modifications: linker 3-12 via mXylylene
B12: 3BP-4324 (peptide)
peptide: {DOTA-APAc″}-VYCE[dP]D[Af3(TzPr)]LTWSC-NH2
modifications: linker 3-12 via mXylylene
B13: 3BP-4333 (peptide)
peptide: {DOTA-APAc″}-VYCE[dP]E(N4BzlSO2Me)WLTWSC-NH2
modifications: linker 3-12 via mXylylene
B14: 3BP-4340 (peptide)
peptide: {DOTA-APAc″}-VYCE[dP]E(N4BzlCN)WLTWSC-NH2
modifications: linker 3-12 via mXylylene; not fully specified; reading uncertain
B15: 3BP-4334 (peptide)
peptide: {DOTA-APAc″}-VYCE[dP]E(N4BzlCl)WLTWSC-NH2
modifications: linker 3-12 via mXylylene; reading uncertain
B16: 3BP-4345 (peptide)
peptide: {DOTA-APAc″}-VYCE[dP]E(N4BzlCONH2)WLTWSC-NH2
modifications: linker 3-12 via mXylylene; not fully specified; reading uncertain
B17: 3BP-4339 (peptide)
peptide: {DOTA-APAc″}-VYCE[dP]E(NOAzOMe)WLTWSC-NH2
modifications: linker 3-12 via mXylylene; reading uncertain
B18: 3BP-4363 (peptide)
peptide: {DOTA-APAc″}-VYCE[dP]D[Af3(Ac-Asp)]LTWSC-NH2
modifications: linker 3-12 via mXylylene
B19: 3BP-3325 (peptide)
peptide: Ac-CE[Sar]DWLTWQC-NH2
modifications: linker 1-10 via mXylylene
SMILES: CC(=O)N[C@H]1CSCc2cccc(c2)CSC[C@@H](C(N)=O)NC(=O)[C@H](CCC(N)=O)NC(=O)[C@H](Cc2c[nH]c3ccccc23)NC(=O)[C@H]([C@@H](C)O)NC(=O)[C@H](CC(C)C)NC(=O)[C@H](Cc2c[nH]c3ccccc23)NC(=O)[C@H](CC(=O)O)NC(=O)CN(C)C(=O)[C@H](CCC(=O)O)NC1=O
notes: also called Ac-[Cys(3MeBn)-Glu-Nmg-Asp-Trp-Leu-Thr-Trp-Gln-Cys]-NH2
B20: 3BP-3055 (peptide)
peptide: Ac-VYCEGDWATWQC-NH2
modifications: linker 3-12 via mXylylene
SMILES: CC(=O)N[C@H](C(=O)N[C@@H](Cc1ccc(O)cc1)C(=O)N[C@H]1CSCc2cccc(c2)CSC[C@@H](C(N)=O)NC(=O)[C@H](CCC(N)=O)NC(=O)[C@H](Cc2c[nH]c3ccccc23)NC(=O)[C@H]([C@@H](C)O)NC(=O)[C@H](C)NC(=O)[C@H](Cc2c[nH]c3ccccc23)NC(=O)[C@H](CC(=O)O)NC(=O)CNC(=O)[C@H](CCC(=O)O)NC1=O)C(C)C
B21: 3BP-3309 (peptide)
peptide: Ac-VYCE[Sar]DWL[dA]WQC-NH2
modifications: linker 3-12 via mXylylene
SMILES: CC(=O)N[C@H](C(=O)N[C@@H](Cc1ccc(O)cc1)C(=O)N[C@H]1CSCc2cccc(c2)CSC[C@@H](C(N)=O)NC(=O)[C@H](CCC(N)=O)NC(=O)[C@H](Cc2c[nH]c3ccccc23)NC(=O)[C@@H](C)NC(=O)[C@H](CC(C)C)NC(=O)[C@H](Cc2c[nH]c3ccccc23)NC(=O)[C@H](CC(=O)O)NC(=O)CN(C)C(=O)[C@H](CCC(=O)O)NC1=O)C(C)C
notes: also called Ac-Val-Tyr-[Cys(3MeBn)-Glu-Nmg-Asp-Trp-Leu-ala-Trp-Gln-Cys]-NH2
B22: 3BP-3044 (peptide)
peptide: Ac-V[dY]CEGDWLTWQC-NH2
modifications: linker 3-12 via mXylylene
SMILES: CC(=O)N[C@H](C(=O)N[C@H](Cc1ccc(O)cc1)C(=O)N[C@H]1CSCc2cccc(c2)CSC[C@@H](C(N)=O)NC(=O)[C@H](CCC(N)=O)NC(=O)[C@H](Cc2c[nH]c3ccccc23)NC(=O)[C@H]([C@@H](C)O)NC(=O)[C@H](CC(C)C)NC(=O)[C@H](Cc2c[nH]c3ccccc23)NC(=O)[C@H](CC(=O)O)NC(=O)CNC(=O)[C@H](CCC(=O)O)NC1=O)C(C)C
B23: 3BP-2836 (peptide)
peptide: Ac-MVYCEGDWLTWQC-NH2
modifications: linker 4-13 via mXylylene
SMILES: CSCC[C@H](NC(C)=O)C(=O)N[C@H](C(=O)N[C@@H](Cc1ccc(O)cc1)C(=O)N[C@H]1CSCc2cccc(c2)CSC[C@@H](C(N)=O)NC(=O)[C@H](CCC(N)=O)NC(=O)[C@H](Cc2c[nH]c3ccccc23)NC(=O)[C@H]([C@@H](C)O)NC(=O)[C@H](CC(C)C)NC(=O)[C@H](Cc2c[nH]c3ccccc23)NC(=O)[C@H](CC(=O)O)NC(=O)CNC(=O)[C@H](CCC(=O)O)NC1=O)C(C)C
B24: 3BP-3604 (peptide)
peptide: Ac-VY[dC][βAla]WLTWSC-NH2
modifications: linker 3-10 via mXylylene
SMILES: CC(=O)N[C@H](C(=O)N[C@@H](Cc1ccc(O)cc1)C(=O)N[C@@H]1CSCc2cccc(c2)CSC[C@@H](C(N)=O)NC(=O)[C@H](CO)NC(=O)[C@H](Cc2c[nH]c3ccccc23)NC(=O)[C@H]([C@@H](C)O)NC(=O)[C@H](CC(C)C)NC(=O)[C@H](Cc2c[nH]c3ccccc23)NC(=O)CCNC1=O)C(C)C
notes: also called Ac-Val-Tyr-[cys(3mebn)-Bal-Trp-Leu-Thr-Trp-Ser-Cys]-NH2

Starred links: 1 amine or outer side, 2 acyl side, 3 side chain; linkers in the order of their positions; H or OH if unused. Positions of bridges follow the written chain, without caps; N, C: chain ends. Non-standard residues stand in square brackets, D forms with d. Primed or numbered codes have the meaning given here. *: point of attachment. Af3(DImAc) = 3-aminophenylalanine acylated on the ring amine with 2-{2,5-dioxo-octahydroimidazo[4,5-d]imidazolidin-1-yl}acetic acid, O=C(CN1C(=O)NC2NC(=O)NC21)Nc1cccc(C[C@H](N[*:1])C(=O)[*:2])c1; Af3(HySuc) = 3-amino-L-phenylalanine acylated on the ring amine with 2-(3,6-dioxo-1,2,3,6-tetrahydropyridazin-4-yl)acetic acid, O=C(Cc1cc(=O)[nH][nH]c1=O)Nc1cccc(C[C@H](N[*:1])C(=O)[*:2])c1; Af3(CMPy) = 3-amino-L-phenylalanine acylated on the ring amine with 5-cyano-1-methyl-1H-pyrazole-4-carboxylic acid, Cn1ncc(C(=O)Nc2cccc(C[C@H](N[*:1])C(=O)[*:2])c2)c1C#N; af3(ac-glu) = lower case: 3-amino-D-phenylalanine, ring amine acylated with N-acetyl-D-glutamic acid, CC(=O)N[C@H](CCC(=O)[*:3])C(=O)Nc1cccc(C[C@@H](N[*:1])C(=O)[*:2])c1; af3(ac-asp) = lower case: 3-amino-D-phenylalanine, ring amine acylated with N-acetyl-D-aspartic acid, CC(=O)N[C@H](CC(=O)[*:3])C(=O)Nc1cccc(C[C@@H](N[*:1])C(=O)[*:2])c1; Af3(TzPr) = 3-amino-L-phenylalanine acylated on the ring amine with 3-(1H-1,2,4-triazol-3-yl)propanoic acid, O=C(CCc1nc[nH]n1)Nc1cccc(C[C@H](N[*:1])C(=O)[*:2])c1; Af3(Ac-Glu) = 3-aminophenylalanine acylated on the ring amine with N-acetyl-glutamic acid, CC(=O)N[C@@H](CCC(=O)[*:3])C(=O)Nc1cccc(C[C@H](N[*:1])C(=O)[*:2])c1; Aph(HO-Succinyl) = 4-aminophenylalanine acylated on the ring amine with succinic acid (free carboxyl), O=C(CCC(=O)[*:3])Nc1ccc(C[C@H](N[*:1])C(=O)[*:2])cc1; Aph(4SaBz) = 4-aminophenylalanine, ring amine acylated with 4-sulfamoylbenzoic acid, NS(=O)(=O)c1ccc(C(=O)Nc2ccc(C[C@H](N[*:1])C(=O)[*:2])cc2)cc1; Af3(HYDAc) = 3-aminophenylalanine, ring amine acylated with hydantoin-5-acetic acid, O=C(CC1NC(=O)NC1=O)Nc1cccc(C[C@H](N[*:1])C(=O)[*:2])c1; Af3(Ac-Asp) = 3-aminophenylalanine acylated on the ring amine with N-acetyl-aspartic acid; APAc″ = 2-(4-(amino)piperidin-1-yl)acetic acid, NC1CCN(CC(=O)*)CC1; DOTA = O=C(O)CN1CCN(CC(=O)O)CCN(CC(=O)*)CCN(CC(=O)O)CC1; mXylylene = c1cc(C[*:1])cc(C[*:2])c1; N4BzlCONH2 = not defined here; N4BzlCN = not defined here; N4BzlCl = not defined here; NOAzOMe = not defined here; PPAc″ = not defined here; APAc = not defined here; Dap = NC[C@H](N)C(=O)O; AEEA = NCCOCCOCC(=O)O; βAla = NCCC(=O)O; Sar = CNCC(=O)O

The target of one test is human carbonic anhydrase IX (CAIX) (human, UniProt Q16790 38-459). Kind of test: FACS competition, HT-29 cells, tracer 3BP-4149; pIC50 category B: 7.1-8.0. As for the experimental part:
(§1) CAIX-expressing human HT-29 colorectal cancer cells (DSMZ, RRID: CVCL_0320) were cultured in McCoys's 5A modified medium (Biochrom, #F1015) including 10% fetal calf serum (FCS), 2 mM L-glutamine, 100 U/ml penicillin and 100 μg/mL streptomycin. Cells were detached with Accutase (Biolegend, #423201) and washed in FACS buffer (PBS including 1% FCS). Cells were diluted in FACS buffer to a final concentration of 500.000 cells per ml. 200 μL of the cell suspension were transferred to a u-shaped non-binding 96-well plate (Greiner) and cells were washed in ice-cold FACS buffer.
(§2) When biotinylated compounds were used an additional incubation step with 1 μg/mL APC-Streptavidin (Miltenyi; #130-106-791) in 50 μL FACS buffer for 30 minutes on ice was performed.
(§3) Cells were washed twice with ice-cold FACS buffer and analyzed in an Attune NxT flow cytometer (Thermo Fisher). Median fluorescence intensities (MFI) of the APC/Cy5-channel were calculated by Attune NxT software.
B1: the pIC50 was in the range of 7.1 to 8 pic50.
B2 yielded a pIC50 of 7.1 to 8 pic50.
Take B3: the pIC50 is 7.1 to 8 pic50.

In another test the target is human carbonic anhydrase 9 (CAIX) (human, UniProt Q16790 38-459). Kind of test: FACS competition on HT-29 cells, competitor tracer 3BP-4149; category B = pIC50 7.1-8.0. As for the experimental part:
as §1, §2, §3
Molecule B4 yielded a pIC50 of 7.1 to 8 pic50.
As for B5, the pIC50 was in the range of 7.1 to 8 pic50.
The same measure, in the same setting: to B6 belongs 7.1 to 8 pic50.
For the molecule B7, the pIC50 lay in the range of 7.1 to 8 pic50.
Same read-out and setting: next, B8: 7.1 to 8 pic50.
Molecule B9 came in with a pIC50 of 7.1 to 8 pic50.
Same read-out and setting: next, B10: 7.1 to 8 pic50; B11: 7.1 to 8 pic50; B12: 7.1 to 8 pic50.
The molecule B13 returned a pIC50 of 7.1 to 8 pic50.
As for B14, the pIC50 is 7.1 to 8 pic50.
B15 displayed a pIC50 of 7.1 to 8 pic50.
B16 came in with a pIC50 of 7.1 to 8 pic50.
As for B17, the pIC50 was in the range of 7.1 to 8 pic50.
As to B18, the pIC50 is 7.1 to 8 pic50.

The next test has the same target. Kind of test: FACS competition on HT-29 cells against tracer 3BP-2776; pIC50 category C = pIC50 6.1-7.0. As for the experimental part: as §1, §2, §3
On to B19, for which the pIC50 was in the range of 6.1 to 7 pic50.
For B20, the pIC50 is 6.1 to 7 pic50.
Regarding B21, the pIC50 lay within 6.1 to 7 pic50.
As to B22, the pIC50 is 6.1 to 7 pic50.
The molecule B23 came in with a pIC50 of 6.1 to 7 pic50.
In turn, B24 gave a pIC50 of 6.1 to 7 pic50.

In another test the target is T1, Fc-fusion protein of human carbonic anhydrase IX (human, UniProt Q16790 38-414). Put plainly: SPR, captured hCAIX-Fc; t1/2 category C: 2.1-5.0 min.
On to B1, for which the “t1/2 (half-life of the complex, SPR)” value lay within 2.1 to 5 min.
Still for that read-out and setting: next, B2: 2.1 to 5 min; B3: 2.1 to 5 min.

A further test has as its target T1, Fc-fusion protein of human carbonic …. Kind of test: SPR, captured hCAIX-Fc; pKD category A: >8.0. In general terms: SPR reads the build-up and loss of mass on a sensor chip optically.
The molecule B1 had a pKD above 8 pkd.
On to B2, for which the pKD was above 8 pkd.
With B3, the pKD is above 8 pkd.

Values taken from US20250339569A1 (3B PHARMACEUTICALS, published 2025).
